Source: the supplement of paper PMC7877785
± gives the uncertainty stated by the source.

Assay: self-splicing fitness, log relative to wild type (ln ratio); higher = more splicing; Tetrahymena group I intron in knt gene, E. coli kanamycin selection, DiMSum; sequences stand for … in CUCUCU…GGAGGGAAAAGUUAUCAGGCAUGCACCUGGUAGCUAGUCUUUAAACCAAUAGAUUGCAUCGGUUUAAAAGGCAAGACCGUCAAAUUGCGGGAAAGGGGUCAACAGCCGUUCAGUACCAAGUCUCAGGGGAAACUUUGAGAUGGCCUUGCAAAGGGUAUGGUAAUAAGCUGACGGACAUGGUCCUAACCACGCAGCCAAGUCCUAAGUCAACAGAUCUUCUGUUGAUAUGGAUGCAGUUCACAGACUAAAUGUCGGUCGGGGAAGAUGUAUUCUUCUCAUAAGAUAUAGUCGGACCUCUCCUUAAUGGGAGCUAGCGGAUGAAGUGAUGCAACACUGGAGCCGCUGGGAACUAAUUUGUAUGCGAAAGUAUAUUGAUUAGUUUUGGAGUACUCGUGGUCG
Method in brief: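 A randomised library covering all eight P1ex-region intron nucleotides was built with the intron in the knt kanamycin-resistance gene on pET-22b(+) and held in E. coli BL21(DE3). Cells were grown overnight at 37°C or 30°C on LB agar, with or without 25 μg/mL kanamycin, plus 100 μg/mL carbenicillin, 50 μM IPTG and 0.2% rhamnose, and pooled colonies were amplicon-sequenced on an Illumina HiSeq 2500. DiMSum fitness is the error-weighted combination of wild-type-normalised replicate fold changes, kanamycin versus none.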

Sequence | self-splicing fitness (ln) (30 °C) | self-splicing fitness (ln) (37 °C)
AUGUAGCAAUAUUACGUAUG | -3.84 ± 0.29 | -3.16 ± 0.28
GUGGAGCAAUAUUACGAGAU | -3.23 ± 0.36 | -2.22 ± 0.41
ACUGAGCAAUAUUACGACAA | -2.96 ± 0.2 | -2.4 ± 0.23
UUCCAGCAAUAUUACGCGCC | -2.72 ± 0.24 | -0.4 ± 0.21
GCAGAGCAAUAUUACGGUAU | -3.23 ± 0.15 | 
UCGCAGCAAUAUUACGGCCA | -0.107 ± 0.091 | 0.246 ± 0.11
CGGGAGCAAUAUUACGCGGA | -2.82 ± 0.23 | -2.93 ± 0.28
AAGUAGCAAUAUUACGAUUA | -0.56 ± 0.1 | -0.688 ± 0.08
ACACAGCAAUAUUACGUAAG | -2.06 ± 0.062 | -0.736 ± 0.069
UCGCAGCAAUAUUACGGACC | -3.5 ± 0.41 | -2.69 ± 0.33
AUUAAGCAAUAUUACGACCG | -1.51 ± 0.1 | -0.619 ± 0.16
GCGAAGCAAUAUUACGAACG | -1.63 ± 0.16 | -0.889 ± 0.21
UGAAAGCAAUAUUACGGGUG | -0.621 ± 0.051 | -0.399 ± 0.069
GUACAGCAAUAUUACGAACC | -1.19 ± 0.14 | -0.582 ± 0.18
GAUGAGCAAUAUUACGGAAU | -3.1 ± 0.23 | -2.66 ± 0.41
UGGUAGCAAUAUUACGCCCU | -0.668 ± 0.16 | 0.287 ± 0.16
GGCCAGCAAUAUUACGGGAC | -2.68 ± 0.12 | -1.21 ± 0.15
UAUUAGCAAUAUUACGUCCG | -0.732 ± 0.16 | -0.925 ± 0.19
CAUCAGCAAUAUUACGGGUU | -1.8 ± 0.067 | -0.61 ± 0.08
GUUUAGCAAUAUUACGUUGA | -3.52 ± 0.43 | -2 ± 0.26
GACUAGCAAUAUUACGUUGG | -2.85 ± 0.22 | -2.42 ± 0.39
UCUAAGCAAUAUUACGAACA | -1.21 ± 0.28 | -1.2 ± 0.2
ACAAAGCAAUAUUACGGACG | -0.851 ± 0.045 | -0.124 ± 0.065
CACUAGCAAUAUUACGUAUG | -1.82 ± 0.061 | -0.818 ± 0.068
UGACAGCAAUAUUACGACGC | -1.83 ± 0.13 | -1.25 ± 0.19

Sequence | self-splicing fitness (ln) (30 °C) | self-splicing fitness (ln) (37 °C)
CUUCAGCAAUAUUACGCCAG | -0.975 ± 0.11 | -0.132 ± 0.17
CUCAAGCAAUAUUACGCCUA | -2.82 ± 0.27 | -2.16 ± 0.28
GAACAGCAAUAUUACGUUCA | -2.31 ± 0.1 | -1.49 ± 0.087
GCACAGCAAUAUUACGACAG | -2.97 ± 0.25 | -1.8 ± 0.23
AAUGAGCAAUAUUACGGCAG | -2.62 ± 0.24 | -1.87 ± 0.46
ACGGAGCAAUAUUACGUUGG | -3.62 ± 0.23 | -2.05 ± 0.17
CCGGAGCAAUAUUACGUCUG | -1.22 ± 0.14 | -0.402 ± 0.16
AAUAAGCAAUAUUACGGACU | -0.768 ± 0.071 | 0.349 ± 0.1
ACGCAGCAAUAUUACGCGAC | -2.01 ± 0.15 | -2.24 ± 0.21
GCACAGCAAUAUUACGAGCU | -2.63 ± 0.11 | -1.07 ± 0.1
CAAGAGCAAUAUUACGCGGU | -3.05 ± 0.17 | -1.81 ± 0.21
GCCGAGCAAUAUUACGCUAC | -3.91 ± 0.31 | -4.08 ± 0.47
CGAUAGCAAUAUUACGCAAU | -3.43 ± 0.27 | -2.26 ± 0.25
GUGUAGCAAUAUUACGAAUU | -2.33 ± 0.064 | -1.85 ± 0.097
CGGCAGCAAUAUUACGAUUU | -3.18 ± 0.22 | -2.64 ± 0.23
AAUAAGCAAUAUUACGACUU | -0.182 ± 0.065 | 0.451 ± 0.094
ACUGAGCAAUAUUACGGGAU | -3.03 ± 0.17 | -2.18 ± 0.22
GCAUAGCAAUAUUACGUAUC | -3.24 ± 0.21 | -2.49 ± 0.22
CACUAGCAAUAUUACGGAGA |  | -2.39 ± 0.22
CGCCAGCAAUAUUACGCCUG | -1.21 ± 0.1 | -0.608 ± 0.096
GUUAAGCAAUAUUACGGCCG | -1.61 ± 0.2 | -0.597 ± 0.37
GCUCAGCAAUAUUACGGGAA | -0.173 ± 0.099 | 0.252 ± 0.16
AGGUAGCAAUAUUACGAUAC | -2.318 ± 0.021 | -1.16 ± 0.037
CGUCAGCAAUAUUACGGGUA | -1.81 ± 0.14 | -1.06 ± 0.1
CAUAAGCAAUAUUACGCUUU | -3.86 ± 0.26 | -2.73 ± 0.24

Sequence | self-splicing fitness (ln) (30 °C) | self-splicing fitness (ln) (37 °C)
GGGAAGCAAUAUUACGUCCG | -1.81 ± 0.15 | -0.461 ± 0.18
UGCGAGCAAUAUUACGAUUG | -2.09 ± 0.1 | -1.35 ± 0.16
ACUGAGCAAUAUUACGGCUG | -1.18 ± 0.16 | -0.804 ± 0.19
UUCAAGCAAUAUUACGCUGC | -2.71 ± 0.3 | -1.92 ± 0.23
ACAGAGCAAUAUUACGGGUU | -2.43 ± 0.1 | -3.08 ± 0.18
GAACAGCAAUAUUACGCGGA | -1.94 ± 0.082 | -0.737 ± 0.075
AUUUAGCAAUAUUACGUCAC | -3.2 ± 0.37 | -1.42 ± 0.32
ACACAGCAAUAUUACGCAAA | -3.2 ± 0.11 | -1.85 ± 0.092
CCCUAGCAAUAUUACGGAUU | -4.34 ± 0.23 | -2.26 ± 0.16
GACGAGCAAUAUUACGUGAA |  | -2.29 ± 0.32
GAGCAGCAAUAUUACGAAGA | -2.69 ± 0.45 | -1.14 ± 0.27
GGCUAGCAAUAUUACGCUGA | -1.18 ± 0.12 | -0.413 ± 0.13
CUAGAGCAAUAUUACGCACU | -4.52 ± 0.46 | -1.99 ± 0.41
GGUCAGCAAUAUUACGCUCG | -0.0238 ± 0.095 | 0.341 ± 0.12
ACAGAGCAAUAUUACGGCGG | -3.41 ± 0.26 | -1.98 ± 0.24
UAGUAGCAAUAUUACGUUGU | -4.09 ± 0.25 | -2.13 ± 0.14
UCCGAGCAAUAUUACGUCAA | -2.89 ± 0.26 | -2.27 ± 0.36
GACAAGCAAUAUUACGCCAU | -3.44 ± 0.4 | -2.96 ± 0.26
GACUAGCAAUAUUACGUGCG | -1.3 ± 0.073 | -0.236 ± 0.091
UACAAGCAAUAUUACGGUCA | 0.157 ± 0.062 | 0.514 ± 0.072
ACUUAGCAAUAUUACGGAGA | -3.19 ± 0.28 | -2.07 ± 0.2
UGGCAGCAAUAUUACGGCAU | -1.18 ± 0.083 | -0.388 ± 0.092
UAAAAGCAAUAUUACGAGUC | -3.45 ± 0.27 | -3.74 ± 0.39
AGCGAGCAAUAUUACGAGUG | -2.92 ± 0.25 | -2.12 ± 0.26
UAAGAGCAAUAUUACGAUGA | -2.15 ± 0.22 | -2.63 ± 0.38

Sequence | self-splicing fitness (ln) (30 °C) | self-splicing fitness (ln) (37 °C)
CGAAAGCAAUAUUACGCAAU | -3 ± 0.13 | -3.64 ± 0.26
AUCAAGCAAUAUUACGUUUC |  | -1.52 ± 0.34
UUGUAGCAAUAUUACGACAU | -0.918 ± 0.015 | -0.322 ± 0.034
GCAUAGCAAUAUUACGUUUU | -3.61 ± 0.19 | -1.82 ± 0.19
CGCAAGCAAUAUUACGUAGG | -1.24 ± 0.057 | -0.509 ± 0.075
GAACAGCAAUAUUACGGACU | -1.28 ± 0.085 | -0.212 ± 0.097
AGGAAGCAAUAUUACGUUGA |  | -1.63 ± 0.46
UAAGAGCAAUAUUACGAAGA |  | -1.98 ± 0.38
UUGAAGCAAUAUUACGCUCU | -1.82 ± 0.12 | -0.916 ± 0.12
UAUCAGCAAUAUUACGCUCU | 0.148 ± 0.12 | 0.416 ± 0.13
UCAAAGCAAUAUUACGUCCA | -1.19 ± 0.13 | -0.715 ± 0.13
CAUGAGCAAUAUUACGACUG | -1.78 ± 0.13 | -0.743 ± 0.18
AUAUAGCAAUAUUACGCCGA | -2.85 ± 0.48 | -1.13 ± 0.35
GAUAAGCAAUAUUACGUGAC | -2.55 ± 0.32 | -0.818 ± 0.3
UACCAGCAAUAUUACGCCCC | -2.68 ± 0.5 | -0.87 ± 0.4
UUCCAGCAAUAUUACGACCG | -1.25 ± 0.099 | -0.758 ± 0.14
CAAAAGCAAUAUUACGGAUA | -3.27 ± 0.31 | -1.81 ± 0.16
CAUCAGCAAUAUUACGUAUC | -1.9 ± 0.092 | -1.05 ± 0.098
UAAAAGCAAUAUUACGGCUA | 0.159 ± 0.073 | -0.0882 ± 0.084
UCCGAGCAAUAUUACGACAC | -2.81 ± 0.21 | -2.33 ± 0.23
UUCGAGCAAUAUUACGAGAU | -3.95 ± 0.35 | -2.34 ± 0.31
CGCGAGCAAUAUUACGUCUG | -0.412 ± 0.067 | -0.178 ± 0.073
